Results: IntAct's records for PubMed 19731236

B1: Phospholipid-transporting ATPase IC (Homo sapiens), O43520 (parent)
chain: MSTERDSETTFDEDSQPNDEVVPYSDDETEDELDDQGSAVEPEQNRVNREAEENREPFRKECTWQVKANDRKYHEQPHFMNTKFLCIKESKYANNAIKTYKYNAFTFIPMNLFEQFKRAANLYFLALLILQAVPQISTLAWYTTLVPLLVVLGVTAIKDLVDDVARHKMDKEINNRTCEVIKDGRFKVAKWKEIQVGDVIRLKKNDFVPADILLLSSSEPNSLCYVETAELDGETNLKFKMSLEITDQYLQREDTLATFDGFIECEEPNNRLDKFTGTLFWRNTSFPLDADKILLRGCVIRNTDFCHGLVIFAGADTKIMKNSGKTRFKRTKIDYLMNYMVYTIFVVLILLSAGLAIGHAYWEAQVGNSSWYLYDGEDDTPSYRGFLIFWGYIIVLNTMVPISLYVSVEVIRLGQSHFINWDLQMYYAEKDTPAKARTTTLNEQLGQIHYIFSDKTGTLTQNIMTFKKCCINGQIYGDHRDASQHNHNKIEQVDFSWNTYADGKLAFYDHYLIEQIQSGKEPEVRQFFFLLAVCHTVMVDRTDGQLNYQAASPDEGALVNAARNFGFAFLARTQNTITISELGTERTYNVLAILDFNSDRKRMSIIVRTPEGNIKLYCKGADTVIYERLHRMNPTKQETQDALDIFANETLRTLCLCYKEIEEKEFTEWNKKFMAASVASTNRDEALDKVYEEIEKDLILLGATAIEDKLQDGVPETISKLAKADIKIWVLTGDKKETAENIGFACELLTEDTTICYGEDINSLLHARMENQRNRGGVYAKFAPPVQESFFPPGGNRALIITGSWLNEILLEKKTKRNKILKLKFPRTEEERRMRTQSKRRLEAKKEQRQKNFVDLACECSAVICCRVTPKQKAMVVDLVKRYKKAITLAIGDGANDVNMIKTAHIGVGISGQEGMQAVMSSDYSFAQFRYLQRLLLVHGRWSYIRMCKFLRYFFYKNFAFTLVHFWYSFFNGYSAQTAYEDWFITLYNVLYTSLPVLLMGLLDQDVSDKLSLRFPGLYIVGQRDLLFNYKRFFVSLLHGVLTSMILFFIPLGAYLQTVGQDGEAPSDYQSFAVTIASALVITVNFQIGLDTSYWTFVNAFSIFGSIALYFGIMFDFHSAGIHVLFPSAFQFTGTASNALRQPYIWLTIILAVAVCLLPVVAIRFLSMTIWPSESDKIQKHRKRLKAEEQWQRRQQVFRRGVSTRRSAYAFSHQRGYADLISSGRSIRKKRSPLDAIVADGTAEYRRTGDS
partner: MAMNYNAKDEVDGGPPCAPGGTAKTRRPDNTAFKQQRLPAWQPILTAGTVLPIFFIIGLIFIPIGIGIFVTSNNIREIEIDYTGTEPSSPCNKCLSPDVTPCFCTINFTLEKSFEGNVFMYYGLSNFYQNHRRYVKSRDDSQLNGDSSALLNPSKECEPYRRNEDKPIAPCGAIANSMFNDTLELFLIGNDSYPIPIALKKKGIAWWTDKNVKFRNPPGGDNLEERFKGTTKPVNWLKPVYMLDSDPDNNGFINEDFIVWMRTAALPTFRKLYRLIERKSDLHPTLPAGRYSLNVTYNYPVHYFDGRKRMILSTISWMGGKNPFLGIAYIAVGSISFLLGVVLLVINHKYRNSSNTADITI

Variants of: B1
Conditions: with cc50a_human TMEM30A

| Variant | effect of a mutation on the interaction |
| --- | --- |
| D70N | decreasing interaction |
| D454A | disrupting interaction |
| R867C | decreasing interaction |
| D554N | disrupting interaction |
| G1040R | decreasing interaction |
| G308V | disrupting interaction |
| I661T | decreasing interaction |
